Assays:
[1] = molecular target: BxpB (recombinant, 167 residues, His6 tag removed with Factor Xa) (Bacillus anthracis (Sterne strain)) (UniProt S5W424); assay: SEC-MALS
[2] = molecular target: BxpB (recombinant, 167 residues, His6 tag removed with Factor Xa) (Bacillus anthracis (Sterne strain)) (UniProt S5W424); assay: crystal structure

Substance: BxpB (recombinant, 167 residues, His6 tag removed with Factor Xa) (from UniProt S5W424 1-167) (natural protein)
- stoichiometry N [1]: 3
- stoichiometry N [2]: 3
